Source: PMC3813429, “New Insight to Structure-Function Relationship of GalNAc Mediated Primary Interaction between Insecticidal Cry1Ac Toxin and HaALP Receptor of Helicoverpa armigera” (PLoS ONE, 2013)

Target: Cry1Ac WT toxin (Bacillus thuringiensis)
Assay: SPR
Settings: both partners purified

B1: HaALP, membrane bound alkaline phosphatase of Helicoverpa armigera (receptor)
chain: HWLHPAAPAAASRAETSANYWAQDAQAAINARLERVESVKKAHNVIMFLGDGMSVPTLAAARTLLGQRQGKTGEETKLHFETFPTIGLVKTYCVDAQIADSACTATAYLCGVKNNYGAIGVDGTVRRGDCQAASNTATHVESIAEWALADGRDVGIVTTTRITHASPAGTFAKTANRTWENDGEVSQMGLDAKDCPDIAHQLVHHHPGNKFKVIFGGGRRAFLPNTVQDDEGSYGRRIDNRDLIQEWKNDKDSRNVSHQYLWQREQLMNLNDDLPEYMLGLFESSHMEYHLKSDPQTEPTLAELTEVAIRSLRRNEKGFFLFVEGGRIDHAHHDNLVELALDETLEMDKAVATATKMLSEDDSLIVVTADHAHVMTINGYSGRGNDILGPSRDVGRDRMPYMTLSYTNGPGFRPHVNDIRQNVTAEPNYRTLDWESHVDVPLVDETHGGDDVAVFARGPHHSMFTGLYEQSQLPHLMAYAACIGPGRHACASAAHLPSAHFFVALPALFISILLR
modifications: glycan with α-GalNAc at the non-reducing terminal (site not stated)
- Kd: 7.68 nM
- koff: 0.00129 s⁻¹
- kon: 168000 M⁻¹ s⁻¹
